Assay results as given in the DeepSol protein solubility set.

Experiment: soluble on expression in E. coli; label from the status in PepcDB or PDB records

Soluble on expression in E. coli, not soluble:
MGSDKIHHHHHHMTTTSPDISRFGPIGLVVIQSTSLCNLDCSYCYLPDRKSRKIFDLELLPLLMQRIFESPFFGEELSLVWHAGEPLTLPCSYYDRATQLINEAVEQWTNGTVHVEQHVQTNATLINDAWCECFRRNKIIVGISVDGPKDIHDANRCFGNGEGSHVHSMRGIEALKRNKIPFHAIAVVTATAMDHPNEMYQFFRDNEIHSVGFNVEEQEGEHTSSSMQGYEREEQYRQFLESFWQLSEQDGFPVVLREFDQVISLIRENRRLNQNELNRPYSILSVDWQGNFSTFDPELLSVSSKLYGTFDLGSIRNISLMEAAKTERFQTLWKDMLSGVKRCEKECNYFGFCGGGMGSNKFWEHGSLNCSETNACRFNNKIPVDVLLDRFKSSPPIDNETPF
MGSDKIHHHHHHMTVDSPILTDTLVVGGGQAGIAMSEHLTGQGVPHIVLERDRIAQRWRTGRWDSLVANGPAWHDRFPGLEFEGLDPDGFASKDAVADYLEAYARKFNAPIRTGVEVVRAERNGGRYGFTVETSAGTYEAQRIVVATGPFQRPVIPAIAPRDPALTQIHSADYRNPGQLPEGAVLVIGAGSSGVQIADELQRAGREVYLSVGPHDRPPRRYRGRDFCWWLGVLGLWDQETVQPGREHVTIAVSGTDGGRTIEFRALAHQGITLVGVTKSFRDGVVAFENDLAENVARGDANHFALLDAADAYIARNGLSLPDEPQARRVPPDPACMTEPILQLDLAAANVTSIIWATGYAAEYGWLNVDAFDANGKPRHQRGVSSEPGVYFLGLPWLSRRGSAFLWGVWHDAKHIAGHIAMQRNYLSYPDFGQSQQ
MGSDKIHHHHHHMTVEPLHILHLISTSGLFGAERVLLELASQSRSLGMHVTVAALKNSRNPNTELAEAARGAGLPTLVVPCGGRFDAGVVGILTEEIRKSGTQIIHSHNYKSNYYARQAAELSGARWIVTNHGRRAGFKLFLYALLDAMLVRKADRVVAVSPKIADRLAVLGIGRDGLSVIDNGVDFSRFESLPTKADAGNVLGVAGSSYVIGTVGALTEEKGHRHLLQAVKSVRKSIPNVVCVVVGDGPERRRLEQLAREEGIEQTAIFTGKRDDVPSILPRFDLFVLPSLSEGLPMALLEAQAAKVPAIATNVGAIATVINNGVTGVVVSPGDVPALAEAIIRSHDEADKARCMALKGYERVKVHYSADTMAQRYIEIYRGMIGAGGAIG
MGSDKIHHHHHHMTVLQLPIIDISGLTCQRNNSSDVVAQQIKQACQDYGFFYIVGHGVDEQLQTQLEHLSQEFFAQDQETKLKISMALGGRAWRGYFPVGNELTSGRPDLKEGIYFGSELKDNHPLVKAGTPMHGRNLFPSNIPQFRETVLEYIDSMTKLGHILMAGIALSLDLDKSYFAERYTKDPLILFRIFNYPPNLGSQSEWGVGEHTDYGVLTILKQDNIGGLQVKSKSGWIDAPPIPGSFVCNIGDMLDRMTRGLYRSTPHRVRNLSTSNRLSFPFFFDPNFNVEVKPIDLKDVVVKDDQSDRWDKASVHEFRGTYGDYLLKKVSKVFPELRQKVL
MGSDKIHHHHHHMTVWRFKKSQKGLVGVDITSATVKLIELESSGAGHRIASYAVRPLHEGAVVERRIRDLDEVANTLTRAVEHARPHSRRAVAAVPASAAITKTLTYPASLTDDEIEARIQLESERHIPFPLNEVAFDFQRLGLNARYPDQQDILLVACRLQDVDRLADVLRRAGLEPAAVDVETFAMERAAGELLLGQAASQPDDECVALVDIGANMNAFHVLIDGRIAYTRDNVLGGRHLTEEIRKRYGLSLEEAGLAKKRGGLPEDYELEVLTPYIDMLIQQVGRSLQLYYTSGKPRDIQRLVLAGGSSVIPGLRERLAAQSGLEVVMANPFSRMRVASRVDVQALASDAPAMLTACGLAMRGRR
MGSDKIHHHHHHMTWLPLNPIPLKDRVSMIFLQYGQIDVIDGAFVLIDKTGIRTHIPVGSVACIMLEPGTRVSHAAVRLAAQVGTLLVWVGEAGVRVYASGQPGGARSDKLLYQAKLALDEDLRLKVVRKMFELRFGEPAPARRSVEQLRGIEGSRVRATYALLAKQYGVTWNGRRYDPKDWEKGDTINQCISAATSCLYGVTEAAILAAGYAPAIGFVHTGKPLSFVYDIADIIKFDTVVPKAFEIARRNPGEPDREVRLACRDIFRSSKTLAKLIPLIEDVLAAGEIQPPAPPEDAQPVAIPLPVSLGDAGHRSS
MGSDKIHHHHHHMTWVGVVDAGRHVEATMKLELGFDPRDLLRKLGPGNSIAKFAKNQTIFAQGDEADSVYLLLQGRIKVVVLSAQGKEAATGMVAPGQFFGDGCLVGEATRTTTTIAMQDCLVAAIPSTRLIETLRAQPDFAELFVRHLLLRNRRIEEDLLDQLLNCSEKRLARLLLRLADFEEGGEPQPIAPHISQETLAEMIGTTRSRVSYFMNKFRKLGLISYDRTIEVHPGRLSAVLHDRAEARG
